# Measurements from the supplement of paper PMC12042874.
# ± gives the uncertainty stated by the source.
# Assay: amyloid nucleation score (Sup35N fusion, yeast selection) (log enrichment); library NNK3; higher = more nucleation; inactive = no reads after selection
# Procedure, shortened: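 The nucleation score, computed with DiMSum, is the log enrichment of output over input reads, centred on the mode score of non-aggregating sequences. Sequences with under 100 input reads were dropped. Reads were generated by Illumina sequencing of plasmid inserts from psi-negative yeast with Sup35N fused to peptides of 20 random codons, induced with 100 μM copper sulfate for 24 hours and grown 7 days at 30°C on medium lacking adenine and uracil.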
row,Substance,amyloid nucleation score
1,LFRVDRPTNCGPYFAYHEYT,inactive
2,PYNVSLFMLRMVSIFFVQHL,inactive
3,MLEEGVHINSGLMIVWYIIM,inactive
4,SGFVSWN,inactive
5,LLNCGLMLLRIDVCRATYYV,1.36 ± 0.14
6,VYIRSFRSCTWRSLPMRIRY,inactive
7,NRSRNMESVRDSLLSVVNRE,inactive
8,RHLLTISKPEMMCGDADEYR,inactive
9,LFEHLRW,0.685 ± 0.2
10,NYRAPMCCELFNKWVF,inactive
11,QVSFM,inactive
12,HLGVGG,inactive
13,WCHLFLFMCTSSLFSGWDDG,inactive
14,SELFSEMREESKGRFNIWEV,inactive
15,NGHKEESILCGNGYWKHASE,inactive
16,TLGMLHRNWYYLLF,inactive
17,IGTLSNLLTKGCKYYGVNIC,inactive
18,IWYRDSFLPSGRYWFLRINW,inactive
19,WHWCCDSNMMRVIFTWFFSL,inactive
20,SSKSSRLNMTVFSKTVMTIM,inactive
21,TFFTGKIRNKAVFEDSSYCK,inactive
22,SFGTLQKVK,inactive
23,NDCISHVSSCRMYDETKVCL,inactive
24,NSYMHGQDF,inactive

row,Substance,amyloid nucleation score
1,KYYTSRNRWRYMV,-0.291 ± 0.68
2,KMLQLVVGIRILVNRMSWSR,inactive
3,DICHWVEYFV,inactive
4,INFHMS,inactive
5,LVKLCIFGLRDGYTVFEYMG,inactive
6,PFNYVVRWESKLQSHYFGLY,inactive
7,CALYFVWAWWERRRKMYYA,inactive
8,VEGCKEGVRVYHLTFESFVI,inactive
9,YGNFF,inactive
10,VTLTN,inactive
11,RTSMPTTHGGLVLQSWDYRP,inactive
12,GRGIYGIIARASAPVRRSLV,inactive
13,RHSNMSRIPMVLNKEKPGTR,inactive
14,VYKIMVTFPSISMPSRSSGL,inactive
15,TNGKPFYFPLAVMMSG,inactive
16,LIMGTVVLIL,1.54 ± 0.073
17,STYFLLILFEGKCFNCSVGK,1.38 ± 0.077
18,LDRCNFISTILPQIRFSV,inactive
19,GVMYQACWSLASTYFTVNSS,inactive
20,HLCDFPLEVKTLFFLL,0.508 ± 0.17
21,DGRRSMATCWIHSNCPWRAS,inactive
22,FYSIFN,inactive
23,LINAGTKFMQDTRSCWMHSS,inactive
24,SITSAPSLYMSGFTKVCSGE,inactive

row,Substance,amyloid nucleation score
1,YMAAVQSTKRNFMHCNKVGS,inactive
2,ILRYVLAHSVLKTCLMQGLA,inactive
3,HKWSAAIEIGSVKDNRIKLL,inactive
4,DSPMKLSALSHM,-0.261 ± 0.96
5,VSGSKWQLREGVAKYMMCRY,inactive
6,YGAFWGYSAGAVKLNENFSV,inactive
7,NSCYTASCS,-0.381 ± 0.63
8,MRWVHSHANHPLHA,inactive
9,YTILVCYSAGVAYYNKGLVR,inactive
10,NMCDNMQQIMVSGYVVVWVY,1.19 ± 0.15
11,LGCKESSVPPARVRGPGQAI,inactive
12,FDHPFICIKPRATRREAWLT,inactive
13,FSDCQLESGCCHRSRDLIGL,inactive
14,WLWTLALNFTYKYFMCGKYK,inactive
15,SWNVFFFSGFRVPYYALTGV,0.254 ± 0.82
16,PLFNRYVSF,inactive
17,SWYYLQFIFMDFMINFCVME,inactive
18,GLKFMRNVSTFRYLRRKTDY,inactive
19,PYKTWTINVLLWNLSCTFLN,1.49 ± 0.096
20,RSMTWFSQDYVSVHRVL,inactive
21,LCSGVHHFVRNTIVKGVCDG,inactive
22,AANLGRSIPESSRKGIGFNF,inactive
23,RYDYFLFLIFSFLCTVDPMV,-0.211 ± 0.31
24,SMRKRKRIKLDI,inactive

row,Substance,amyloid nucleation score
1,AAMHLDILNGTATRLSYSCA,inactive
2,YSWSMLL,0.077 ± 0.54
3,YLSVPVF,inactive
4,ASAFYRCVGGIVYVHTIVGV,inactive
5,FNFNILTIWIDLLAQLGMT,1.85 ± 0.1
6,NCTVYLGTFCCSQGFAGLPP,3.07 ± 0.053
7,ISLLYVFMLNR,2.11 ± 0.078
8,NSRSKNWGLVFPSNRGLVS,inactive
9,FFPFPKFWAGIVIAFY,inactive
10,QRISMIALDRFD,inactive
11,WMMRD,inactive
12,EAVKWPHMILPHCTHMWIYW,inactive
13,EWCSMYILSC,inactive
14,IIQDYGTVVD,inactive
15,NWVLARIWW,0.755 ± 0.18
16,MGHDHHWSGSDMGS,inactive
17,LVYLAF,inactive
18,INAQS,inactive
19,YGMDIIWW,inactive
20,ISSLGKKTW,inactive
21,DHCGNFEDRWICVINNMRVS,inactive
22,RANLPRLFQNDHNSWLDCVA,inactive
23,FQPMV,inactive
24,RGNIWIHKK,0.404 ± 0.15

row,Substance,amyloid nucleation score
1,HDLAETCGSSPI,inactive
2,NHFAAMLSCFSSRVVVTYQA,inactive
3,SFLIGVV,inactive
4,TVHKVSGKDQGWMYGHMLFC,inactive
5,YFCLQNFRVFLGRYMIHNYL,inactive
6,NYLSASVCRRRDFI,inactive
7,DLMLWKNFSLFTRESRGFAN,inactive
8,FCHLLVMLFYKGPKVFCIVM,inactive
9,QWKVLLRACHRLEDALCCIS,inactive
10,SPRTNNPTMHRSGW,inactive
11,RRHLITSVHQTLIVVGFDPR,inactive
12,CFVFTFGT,1.38 ± 0.082
13,KLFGRCNSNSPIVGWIRCGL,inactive
14,YCSLMMMVYRDFFTLVNASV,inactive
15,SLGFCKVGALLRWFCSQCQG,0.561 ± 0.37
16,GNHQSRYSFVP,inactive
17,RYDMRVNVVFTCPWRDSNND,0.894 ± 0.28
18,RTLNYFSHVCQSSINWSSLV,0.743 ± 0.16
19,NPGRYRGGRTAHIFPERDIR,inactive
20,CLIYTTVFHSAG,0.708 ± 0.13
21,EPSGNM,inactive
22,YSSSC,inactive
23,MPVSYAG,inactive
